What was measured:
[1] = target: human cardiac Troponin-I3 (UniProt P19429)
[2] = target: human cardiac Troponin-T2 (UniProt P45379)

Chain of human cardiac Troponin-I3 (P19429 whole entry, looked up): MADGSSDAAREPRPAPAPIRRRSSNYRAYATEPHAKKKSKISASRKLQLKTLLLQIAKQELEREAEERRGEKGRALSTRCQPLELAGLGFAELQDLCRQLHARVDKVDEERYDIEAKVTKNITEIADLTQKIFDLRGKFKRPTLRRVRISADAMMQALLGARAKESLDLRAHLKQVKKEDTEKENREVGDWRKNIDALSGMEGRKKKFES

calpain-2
in vitro protease digestion, breakdown products on gels [1]: human cardiac Troponin-T2 and Troponin-13 were cleaved by calpain-2 and caspase-3 proteases, producing unique breakdown products
stated: cleaves (breakdown bands on a gel) [1]: the Tn-I3 (24 kDa) band stays in both Calp-2 lanes (rising amount); arrows A and B mark two faint products below it at the higher-amount lane
in vitro protease digestion, breakdown products on gels [2]: human cardiac Troponin-T2 and Troponin-13 were cleaved by calpain-2 and caspase-3 proteases, producing unique breakdown products
stated: cleaves (breakdown bands on a gel) [2]: in the two Calpain-2 lanes (rising amount) the Troponin-T2 band at the 30 kDa mark fades and a band b appears between the 15 and 10 kDa marks; arrowheads a, b and c mark products between 15 and 10 kDa beside the higher-amount lane; none of these is in the untreated lane
